# Test: yeast display, Sf9 membrane polyspecificity reagent, FACS + sequencing; frameworks hold sequencing errors
# How it was run: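 Sorting gates, low and high (top ~1%), were placed on anti-HA fluorescence to track expression and on streptavidin fluorescence to track reagent binding. A clone's polyreactivity label is taken from the gate it came out of. The reagent was 10% biotinylated, detergent-solubilized Sf9 membrane, applied for 1 hour at 4 °C to galactose-induced yeast display cells.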
row,Sequence,polyreactivity (PSR sort gate)
1,QVQLVESWGGLVQAGGSLRLSCAASGYIFDRYAMGWYRQAPGKERELVAAISGRGGSTYYADSVKGRFTISRDNAKNTVYLQMNSLKPEDTAVYYCARDVYVRNGQRARYDSWGQGTQVTVSS,high polyreactivity
2,QVQLVETGGGLVQAGGSLRLSCAASGRIFRFYDMGWYRQAPGQERELVATINPTGGSTSYADSVKGRFTISRDNAKNTVYLQMNSLNPEDTAVYYCAADSWYSVRKTWSRSGSFPFDYWGQGTQVTVSS,high polyreactivity
3,QVQLVESGGGLVQAGGSLRLSCAASGSIFSKNAMGWYRQAPGKERELVAAISSSGGITYYADSVKVRFTISRDNANNTVYLQMNSLKPEDTAFYYCATLGGAIRQAFEYWGQGTQVNVSS,low polyreactivity
4,QVQLLESGGGLVQAGGSLRLSCAASGSTFDDNAMGWYRQAPGKERELVAGISDGDDSTNYADSVKGRFTISRDNAKNTVYLQMNRLKPEDTAVYYCNARYVRTYGVRFGYDYWGQGTQVTVSS,low polyreactivity
5,QVHLVDSRGGLVQAGGSLRLSCAASGRISVFYTMGWYRQEPGKEREMVATITTSGGFTYYADSVKGRFTNSRDNAKNTVYLLMNSLKPEDTAVYYCAAVLGYRFYEYYFWGQGTQVTVSS,low polyreactivity
6,QVQLVESGGGLVQAGGSLRLSCAASGRIFGPNAMGWYRQAPGKERELVAAITGSGGSTYADSVKGRFTISRDNAKNTVYLQMNSLKREDTAVYYCAKKTWYSYYWGQGTQVTVSS,high polyreactivity
7,QDQLVESGGGLVQAGGSLRLRCAASRFYTMGWYRQAPGKERELVAAISWSGGDTYYADSVKGRFTISRDNAKNTVYLQMNSLKPEDTAVYYCAKKTIGSYVHEPYYYWGQGTQVTVSS,low polyreactivity
8,QVQLVESGGGLVQAGGSLRLSCAASGRIFHVNAMGWYRQAPGKERELVATITTSGGTTYYADSVKGRFTISRDKAKNTVYLQMNSLKPEDTAVYYCAAKFPRQYSSRYNYWGQGTQVTVSS,low polyreactivity
9,QVQLVESGGGLVQAGGSLRLSCAASGFIFSSYAMGWYRQAPGKEMELVAAISWSGGRTYYADPVKGRFTISRDNAKNTVYLQLNSLKPEDTAVYYCNARYPYPYWYTSYDYWGQGTQVTVSS,high polyreactivity
10,QVQLVESGGRLVQAGGSLRLSCAASVITFLGNAMGWYRQAPGKERELVAAISASGGRTYYADSVKGRFTISRDNAKNTVYLLMNSLKPEDTAVYYCAAASKPWYYYWGQGTQVTVSS,high polyreactivity
11,QVQLVESGGGLVLAGGSLRLSCAASGSNFSPNAMGWYRKAPGKERELVAAITYRGANTYYADSVKGRFTISRDYAKNTVYFLMNSLKPEDTAVYFCAAEYAYHHVGFGYWGQGTQVTVSS,low polyreactivity
12,QVQLVESGGGLVQAGGSLRLSCAASGSIFTFYAMGWYRQAPGKERELVARITRGVSTNYADSVKGRFTISRDNAKITVYLQLNSLKPEDTAVYYCAAESGNRYEYWGQGTQVTVSS,low polyreactivity
13,QVQLVESGGGLVQAGGSLRLSCAASGSTFYSNVMGWYRQAPGKERELVAAISQSGGRTFYADSVKGRFTISRDNAKNTVYLQMNSLIPEDTAVYYGNYVRAQPRNPYDYWGQGTQVTVSS,high polyreactivity
14,QVQLVESGGGLVQAGGSLRLSCAASGRIFWYYAVGWYRQAPGKERELVARISSSGGSTYYADSVKGRFTISRDNANNTVYLQMNSLKPEDTAVYYCAKERYSGSSRYPMDYWGQGTQVTVSS,high polyreactivity
15,QVQLVESGGGLVQAGGSLRLSCAASGFIFKGYDMGWYRQAPGKEREMVAAITSGSTNYADSVKGRFTNSRDNAKNTVYLQMNSVKPEDTAVYYCNAELGRATLYPRVFIERGGYWGQGTQVNVSS,low polyreactivity
16,QDQLVESGGGLVQAGGSLRLSCAASGFTFGRYAMGWYRQAPGKERELVATITRTGSTNYADSVKGRFTISRDNAKNTVDLQMHSLKPEDTAVYYCNAVYSGWRYVKYDYWGPGTQVTVSS,low polyreactivity
17,QVQLVDSGGGLVQAGGSLRLSCAASGRNFARYSMGWYRQAPGTERELVAAISWCGTSTYYADSVKGRYTISRDNAKNTVYLQMNSLKPEDTAVYYCAATYLYRDQPKWGGFAYTYGHWGQGTQVTVSS,high polyreactivity
18,QVQLVESGGGLVQAGGSLRLSCAASGTFRRYTMGWYRQAPGKERELVAAITSSGGTYYADSVKGRFTISRDNAKNTVYLQMNSLKPEDTAVYYCAARDYWSRYFRPGIVGWHDYWGQGTQVTVSS,high polyreactivity
19,QVQLVESGGGLVQAVGSLRLSCAASGRIFDTYVMGWYRQAPGKEREMVAAISGSGGSTYYADSVKGRFTISRDNAKNTVYLQMNSLKPEDTAVYYCSAARRYYAYRYDYWGQGTQVTVSS,high polyreactivity
20,QVQLVESGGGLVQAGGSLRLSCAASGSIFRYYDMGWYRQAPGKERELVAAISYSDGRTYYADSVKGRFTISRDNAKNTVYLQMNSLKPEDTAVYYCAAETLYVSPYFFVVQYDYWGQGTKVTVSS,high polyreactivity
21,QVQLVESGGGLVQAGGSLRLSCAASGSIFGAYMGWYRQAPGTEREFVAAINRSGSSTYYADSVKGRFTISRDNAKNTVYLQMNSLKPEDTAVYYCAAKYPGGETYPFDYWGQGTQVTVSS,low polyreactivity
22,QVQLVESGGGLVQAGGSLRLSCAASGSIFTWYAMGWYRQAPGKERELVAAISEDGGSTYYADSVKGRFTISRDNAKNTVYLQMNSLKPEDTAVYYCATPVASVTGYDYWGQGTQVTVSS,low polyreactivity

row,Sequence,polyreactivity (PSR sort gate)
1,QVQLVESGGGLVQAGGSLRLSCAASGRTFIGYAMGWYRQAPGKERELVAAISSSGGRTYYADSVKGRFTISRDNAKNTVYLQMNSLKPEDTAVYYCNAVRYVLGYSYDYNYWGQGTQVTVSS,high polyreactivity
2,QVQLVESGGGLVQAGGSLRLSCAASGIFRQNAMGWYRQAPGKERELVAGISQSGGSTYYADSVKGRFTISRDNAKNTVYLQMNSLKPEDTAVYYCAGVSIWGYDYWGQGTQVTVSS,low polyreactivity
3,QVQLVESGGGLGQAGASLRLICAPSGSIFLIYCMGWYRQSPGKERELVAAITARGGSTYYADSVKGSFTISRDNAKNTVYLQMNSLKPEDTSVYYCNDVGYPDVGAGTYGYWGQGTQVTVSS,low polyreactivity
4,QVELVESGGGLVQAGGSLRLSCAASGFIFTYYAMGWYSQAPWKERELVATISSGGGSTYYADSVKGRFTISRDNAKNTVYLQMYSLNPEDTAVYYCAASRRITGIRYINRYAYWGQGTQVTVSS,high polyreactivity
5,QVQLVESGGGLVQAGGSLRLSCAASGSTFFTNAMGWYRQAPGKERELVAGISYGGGRTYYADSVKGRFTISLDNAKNTVYLQMNRLKPEDTAVYYCNTVTSQAPYYSYVSWGQGTQVTVSS,high polyreactivity
6,QVQLVESGGGLVQAGGSLRLSCAASGSTFSDYTMGWYRQAPGKERELVAAITTIGGSTYYADSVKGRFTISRDNAKNTVYLQMNSLKPEDTAVYYCAASYYYPFEYYYWGQGTQVTVSS,low polyreactivity
7,QVQLVESGGRLVQAGGSLRLSCAASGRIFSIYGMGWYRPAPGKERELVAVISGSVGITYYADSVKGRFTISRDNAKNTVYLQMNSLKPEDTAVYYCNAKVRRRKYDYWGQGTQVTVSS,high polyreactivity
8,QVHLVESGGGLVQAGGSLRLSCAASGRTFGWNVMGWYRQAPGKERELVAAISGSGGSTYYADSVKVRFTISRDNAKNTVYLQMNSLKPEDTAVYYCAALYGPGREYDYWGQGTQVTVSS,low polyreactivity
9,QVQLVESGGGLVQAGGRLRLSCAASGRTFFGYAMGWYRQAPGKERELVAAITSSGGRTYYADSVKGRFTISRDNAKNTVYLQMNSLKPEDTAVYYCNTVLSFRSVNIYRGRGDYWGQGTQVTVSS,high polyreactivity
10,QVQRVESGGGLVQAGRSLRLSCAATGITFWVYAMGWYRQAPGKERELVAAISRRGGSTSYADSVKGRFTISRDNAKNTVYLQMNSLKPEDTAVYYCAATTYTHPYGYWGQGTQVTVSS,high polyreactivity
11,QVQLVESGGGLVQAGGSLRLSCAASGFIIGYYAMGWYRQAPGKVREFVAAISRSGGSTYYADSVKGRFTISRDNAKNTVYLQMNSLKPEDTSVYYCAADYQKTYTSKFNYWGQGTQVTVSS,high polyreactivity
12,QVQLVESGGGLVQAGGSLRLSCAASGYIFRQNAMGWYRQAPGKERELVAAISRSDDNTFYADSVKGRFTISRDNAKNTVYLLMNSLKPEDTAVYYCAKYAVPWRYPRGYDYWGQGTQVTVSS,low polyreactivity
13,QVQLVESGGGLVQAGGSLRLSCAASGIIFRYNAMGWYRPAPGKERELVAAITSGGITKYADSVKGRFTISRDNAKNTVYLQMNSLKPEDTAVYYCNAEYGFFRAGSRGEYWGQGTQVTVSS,low polyreactivity
14,QVQLVESGGGLVQAGGSLRLSCAASGSTFRPNAMGWYRQAPGKERELVAAISRSGVSTYYADSVKGRFTISRDNAKNTVYLQMNSLQPEDTAVYYCARRYTGRPVLRESWGQGTQVTVSS,low polyreactivity
15,QVQLVESGGGLVQAGGSLRLSCAASGSIFAINAMGWYRQAPGKERELVAGITSGGSTYYADSVKGRFTISRDNAKNTVYLQMNSLKPEDTAVYYCAVQVVRSWLVTYYYWGQGTQVTVSS,high polyreactivity
16,QVQLVESGGGLVQAGGSLSLSCAASGPTFTQNVMGWYRQAPGKERELVAGISSGDITNYADSVKGRFTISRDNAKNTVYLQMNSLKPEDTAVYFCTYYGKSGGYRYTYYYWGQGTQVTVSS,high polyreactivity
17,QVQLVESGGGLVQAGGSLRLSCAASGIIFVGNAMGWYRQAPGKERELVASINSGGSTYYADSVKGRFTISRDNAKNTVYLPMNSLKPEDTAVYYCAVEEARYYYDDYDYWGQGTQVTVSS,low polyreactivity
18,QVQLVESGGGLVQAGGSLRLSCAASGLIFYYYAMGWYRQAPGKERELVAAITTGGGTYYADSVKGRFTISRDNAKNTVYLQMNILKPEATAVFYCAVYYRSYWGYEYWGQGTQVTVSS,high polyreactivity
19,HVQLVQSGGGLVQAGGSLRLSCAASVYTFVYYAIGWYRQATGKERELVAAITSRAGRTYYADSVKGRFTISRDNAKNTVYLQMNSLKPEDTAVYYCNAASTKITRFDYWGQGTQVTVSS,high polyreactivity
20,QVQLVESGGGLVQAGGSLRLSCAASGITFGFYAMGWYRQAPGKERELVASITWRGGSTYYADSVKGRFTISRDNAKNTVYLQMNSLKPEDTAVYYCAAEQYVFRPRAQEITTYDYWGQGTQVTVTS,high polyreactivity
21,QVQLVESVGGLVQAGGSLRLSCAASGSTFGTYAMGWYRQAPGKVSELVAAISNSGGSTYYADSVKGRFTISRDNAKNTVYLQMNSLKPEDTAVYYCNTDGLVRNGPFFSWGQGTQVTVSS,low polyreactivity
